# In US9839701B2, “Aromatic amino acid derivative and positron emission topography (PET) probe using the same” (OSAKA UNIVERSITY, priority 2013, dated 2017):
# B1: human LAT2 (Homo sapiens) (protein)
# chain: MEEGARHRNNTEKKHPGGGESDASPEAGSGGGGVALKKEIGLVSACGIIVGNIIGSGIFVSPKGVLENAGSVGLALIVWIVTGFITVVGALCYAELGVTIPKSGGDYSYVKDIFGGLAGFLRLWIAVLVIYPTNQAVIALTFSNYVLQPLFPTCFPPESGLRLLAAICLLLLTWVNCSSVRWATRVQDIFTAGKLLALALIIIMGIVQICKGEYFWLEPKNAFENFQEPDIGLVALAFLQGSFAYGGWNFLNYVTEELVDPYKNLPRAIFISIPLVTFVYVFANVAYVTAMSPQELLASNAVAVTFGEKLLGVMAWIMPISVALSTFGGVNGSLFTSSRLFFAGAREGHLPSVLAMIHVKRCTPIPALLFTCISTLLMLVTSDMYTLINYVGFINYLFYGVTVAGQIVLRWKKPDIPRPIKINLLFPIIYLLFWAFLLVFSLWSEPVVCGIGLAIMLTGVPVYFLGVYWQHKPKCFSDFIELLTLVSQKMCVVVYPEVERGSGTEEANEDMEEQQQPMYQPTPTKDKDVAGQPQP
# notes: expressed in transfected cells
# Substrate: N[C@@H](Cc1ccc(O)cc1)C(=O)O
# Assay: Promoting effect on amino acid efflux from human LAT2 stably expressing cell line
# Assay type: cell-based
# Conditions: other: Km for amino acid efflux, Table 7; 37.0 °C
# Procedure: In the same manner as in Example 3, the human LAT1 stably expressing cell line and the human LAT2 stably expressing cell line were seeded on separate collagen-coated 24-well plates, and after 48 hours, the cells were washed with an uptake buffer prewarmed at 37° C. An uptake buffer supplemented with 1 μM of [^14C]L-leucine or [^14C]L-alanine was added to each well, and [^14C]L-leucine or [^14C]L-alanine uptake by the cells was allowed to proceed at 37° C. for 10 minutes. The cells were washed with an uptake buffer prewarmed at 37° C., treated with the compound of Example 1 or the positive control FAMT at 1, 2, 3, 5, 10, 20, 50, 100 or 200 μM, and incubated at 37° C. for 1 minute, and the supernatants were collected. The radioactivity in each supernatant was measured as the radioactivity of the amino acid released from the cells. Subsequently, 500 μL of 0.1 M NaOH was added to each well for cell lysis, 20 μL of the lysate was used for the measurement of the protein concentration, and the remaining lysate was used for the measurement of the residual radioactivity in the cells. The sum of the residual radioactivity and the released radioactivity in each experiment was checked to confirm that there was no great difference in the total radioactivity incorporated into the cells at the preloading among the experiments. […]
protein,measurement,value
B1,Km,32.7 µM
